What all share (format): cell-based
A short description of assay [1]: YFP quench plate reader assay, response to APN-1125. The following applies: LX293T YFP reporter cells; for percent quench of YFP fluorescence, 100 nM apn: 100 nM APN-1125; for percent quench of YFP fluorescence, 1 uM apn: 1 uM APN-1125; for percent quench of YFP fluorescence, 30 uM apn: 30 uM APN-1125. The text has this:
(§1) FIGS. 1A-FIG. 1G show the heat maps of the percent quench of YFP fluorescence in the mutants of the engineered chimeric receptor SEQ ID NO:33 that comprise the indicated double amino acid substitutions following stimulation by various doses of either acetylcholine or the indicated non-native ligand. Ligand doses are written across the top of each chart. Numbers in the boxes indicate the absolute amount of quench observed. Dark blue=80% maximal quench of YFP reporter. Light blue=quench of 30-80%. White=10-30%. Orange=0-10% quench. Negative values represent non-responders that have a negative quench due to a stimulation artifact. SEQ ID NO:29 is a non-responding chimera used as a negative control. Abbreviations for non-native ligand names: abt: ABT-126; ach: acetylcholine; apn: APN-1125; azd: AZD-0328; brd: TC-5619; fac: RG3487; tc6: TC-6987.
(§2) Tables 2-8 below lists percent quench of YFP fluorescence following stimulation of the indicated engineered receptor by various doses of either acetylcholine or the non-native ligand.
(§3) To screen these mutant LGICs for those having novel response profiles to ligands, an anion reporter assay was developed to assess the function of channels in a high throughput format. In this assay, cells expressing a YFP reporter whose fluorescence is quenched in the presence of anion are transfected with DNA encoding the channel of interest. Upon exposure to ligand, channels that are activated will flux anion, resulting in a dose-dependent quench of the YFP that can be detected on a plate reader.
(§4) Lenti-X 293T cells (LX293T, Clontech) were maintained in DMEM containing 10% FBS and 1% penicillin/streptomycin (Invitrogen). […] Two days before assay, cells were split at a density of 20,000 cells/well in a 96-well tissue culture plate coated with poly-d lysine (Thermo Scientific). The next day, the cells were transiently transfected with 0.1 μg of DNA per well using standard Fugene protocol (Promega). On the day of assay, cells were washed 2 times in 1× extracellular solution (1×ECS: 140 mM NaCl, 5 mM KCl, 1 mM MgCl2, 2 mM CaCl2, 10 mM HEPES, 10 mM glucose, pH 7.2, mOsms 300). After the last wash, 100 μL of 1×ECS was added to the wells and the plate was incubated at 37° C. for 30 min. While incubating the plate, the drugs were diluted to a 2× concentration in 1×ECS-NaI (same components as 1×ECS except the 140 mM NaCl was replaced by 140 mM NaI). The plates were then read on a Flexstation3 (Molecular Devices). Each well, 8 wells at a time, of the plate is read for 2 min using a Flexstation3 (Molecular Devices) as follows: 1) a baseline YFP fluorescence is read for 17 sec, 2) 100 μL of ligand is added, and 3) the changes in YFP fluorescence are then measured every 1.3 sec for the remaining time.
(§5) FIG. 1 provides heat maps of the percent quench of YFP fluorescence following stimulation by various doses of either acetylcholine or the non-native ligand as indicated in the Figure. A positive fluorescence signal, as indicated by blue shaded cells, indicate that the engineered receptor is activated by the non-native ligand at that concentration. […] Table 12 lists the EC50 values for the indicated double mutants to acetylcholine (Ach) and TC-5619 as determined from the YFP fluorescence plate reader experiment.

Assay [2] can be described thus: YFP quench plate reader assay, response to TC-6987. Particulars: LX293T YFP reporter cells; for percent quench of YFP fluorescence, 1 uM tc6: 1 uM TC-6987; for percent quench of YFP fluorescence, 10 uM tc6: 10 uM TC-6987; for percent quench of YFP fluorescence, 500 uM tc6: 500 uM TC-6987.
Description: as §1, §2, §3, §4, §5

Assay [3] in a line: YFP quench plate reader assay, response to ABT-126. Particulars: LX293T YFP reporter cells; for percent quench of YFP fluorescence, 50 nM abt: 50 nM ABT-126; for percent quench of YFP fluorescence, 100 nM abt: 100 nM ABT-126; for percent quench of YFP fluorescence, 300 nM abt: 300 nM ABT-126; for percent quench of YFP fluorescence, 1 uM abt: 1 uM ABT-126.
Description: as §1, §2, §3, §4, §5

Assay [4] in a line: YFP quench plate reader assay, response to RG3487. Particulars: LX293T YFP reporter cells; for percent quench of YFP fluorescence, 30 nM fac: 30 nM RG3487; for percent quench of YFP fluorescence, 300 nM fac: 300 nM RG3487; for percent quench of YFP fluorescence, 30 uM fac: 30 uM RG3487.
Description: as §1, §2, §3, §4, §5

The nature of assay [5]: YFP quench plate reader assay, response to TC-5619. The following applies: LX293T YFP reporter cells.
Description: as §1, §2, §3, §4, §5

Assay [6] in a line: YFP quench plate reader assay, response to AZD-0328. Particulars: LX293T YFP reporter cells; for percent quench of YFP fluorescence, 100 nM azd: 100 nM AZD-0328; for percent quench of YFP fluorescence, 300 nM azd: 300 nM AZD-0328; for percent quench of YFP fluorescence, 30 uM azd: 30 uM AZD-0328.
Description: as §1, §2, §3, §4, §5

Assay [7] in a line: YFP quench plate reader assay, response to acetylcholine. The following applies: LX293T YFP reporter cells; for percent quench of YFP fluorescence, 10 uM ach: 10 uM acetylcholine; for percent quench of YFP fluorescence, 100 uM ach: 100 uM acetylcholine; for percent quench of YFP fluorescence, 1 mM ach: 1 mM acetylcholine; for percent quench of YFP fluorescence, 3 mM ach: 3 mM acetylcholine.
Description: as §1, §2, §3, §4, §5

From patent US20220348635A1, “COMPOSITIONS AND METHODS FOR NEUROLOGICAL DISEASES” (Coda Biotherapeutics, Inc., priority 2019, published 2022) come the findings set out here.

B1: L131S, S172D in SEQ ID NO: 33: engineered chimeric α7-nAChR/GlyRα1 LGIC receptor: SEQ ID NO: 33 with substitutions L131S and S172D (protein)
chain: MRCSPGGVWLALAASLLHVSLQGEFQRKLYKELVKNYNPLERPVANDSQPLTVYFSLSLLQIMDVDEKNQVLTTNIWLQMSWTDHYLQWNVSEYPGVKTVRFPDGQIWKPDILLYNSADERFDATFHTNVSVNSSGHCQYLPPGIFKSSCPMDLKNFPMDVQTCKLKFGSWDYGGWSLDLQMQEADISGYIPNGEWDLVGIPGKRSERFYECCKEPYPDVTFTVTMRRRMGYYLIQMYIPSLLIVILSWISFWINMDAAPARVGLGITTVLTMTTQSSGSRASLPKVSYVKAIDIWMAVCLLFVFSALLEYAAVNFVSRQHKELLRFRRKRRHHKSPMLNLFQEDEAGEGRFNFSAYGMGPACLQAKDGISVKGANNSNTTNPPPAPSKSPEEMRKLFIQRAKKIDKISRIGFPMAFLIFNMFYWIIYKIVRREDVHNQ
modifications: synthetic sequence of chimeric LGIC
For the molecule B1, in assay [1], the “percent quench of YFP fluorescence, 100 nM apn” value turned out to be 14.26%; the “percent quench of YFP fluorescence, 1 uM apn” value is 45.55%; the “percent quench of YFP fluorescence, 30 uM apn” value is 64.93%. Moreover, in assay [2], the “percent quench of YFP fluorescence, 1 uM tc6” value was −20.99%; the “percent quench of YFP fluorescence, 10 uM tc6” value is given as −27.62%; the “percent quench of YFP fluorescence, 500 uM tc6” value was −24.22%. For the same molecule, in assay [3], the “percent quench of YFP fluorescence, 50 nM abt” value is reported as −11.96%; the “percent quench of YFP fluorescence, 100 nM abt” value is on record as −10.72%; the “percent quench of YFP fluorescence, 300 nM abt” value was 11.65%; the “percent quench of YFP fluorescence, 1 uM abt” value is recorded as −3.06%. In assay [4], the “percent quench of YFP fluorescence, 30 nM fac” value is reported as −23.44%; the “percent quench of YFP fluorescence, 300 nM fac” value came to 2.75%; the “percent quench of YFP fluorescence, 30 uM fac” value is reported as 61.44%. The “percent quench of YFP fluorescence, 10 uM fac” value in assay [4] (10 uM RG3487) stood at 69.71%. Further, the “percent quench of YFP fluorescence, 1 nM brd” value in assay [5] (1 nM TC-5619) was −1.13%. For the same molecule, the “percent quench of YFP fluorescence, 3 nM brd” value in assay [5] (3 nM TC-5619) is listed as −3.83%. The “percent quench of YFP fluorescence, 10 nM brd” value in assay [5] (10 nM TC-5619) is −3.78%. In addition, the “percent quench of YFP fluorescence, 100 nM brd” value in assay [5] (100 nM TC-5619) is recorded as −2.03%. In addition, the “percent quench of YFP fluorescence, 1 uM brd” value in assay [5] (1 uM TC-5619) is given as 1.68%. Further, in assay [6], the “percent quench of YFP fluorescence, 100 nM azd” value is on record as −9.32%; the “percent quench of YFP fluorescence, 300 nM azd” value was 4.94%; the “percent quench of YFP fluorescence, 30 uM azd” value is listed as 60.61%. For the same molecule, in assay [7], the “percent quench of YFP fluorescence, 10 uM ach” value is on record as −11.3%; the “percent quench of YFP fluorescence, 100 uM ach” value is recorded as −27.53%; the “percent quench of YFP fluorescence, 1 mM ach” value came out at 2.84%; the “percent quench of YFP fluorescence, 3 mM ach” value was 14.65%.

B2: L131T, S172D in SEQ ID NO: 33: engineered chimeric α7-nAChR/GlyRα1 LGIC receptor: SEQ ID NO: 33 with substitutions L131T and S172D (protein)
chain: MRCSPGGVWLALAASLLHVSLQGEFQRKLYKELVKNYNPLERPVANDSQPLTVYFSLSLLQIMDVDEKNQVLTTNIWLQMSWTDHYLQWNVSEYPGVKTVRFPDGQIWKPDILLYNSADERFDATFHTNVTVNSSGHCQYLPPGIFKSSCPMDLKNFPMDVQTCKLKFGSWDYGGWSLDLQMQEADISGYIPNGEWDLVGIPGKRSERFYECCKEPYPDVTFTVTMRRRMGYYLIQMYIPSLLIVILSWISFWINMDAAPARVGLGITTVLTMTTQSSGSRASLPKVSYVKAIDIWMAVCLLFVFSALLEYAAVNFVSRQHKELLRFRRKRRHHKSPMLNLFQEDEAGEGRFNFSAYGMGPACLQAKDGISVKGANNSNTTNPPPAPSKSPEEMRKLFIQRAKKIDKISRIGFPMAFLIFNMFYWIIYKIVRREDVHNQ
modifications: synthetic sequence of chimeric LGIC
As for B2, in assay [1], the “percent quench of YFP fluorescence, 100 nM apn” value was 1.23%; the “percent quench of YFP fluorescence, 1 uM apn” value was 35.77%; the “percent quench of YFP fluorescence, 30 uM apn” value turned out to be 68.29%. In assay [2], the “percent quench of YFP fluorescence, 1 uM tc6” value is reported as −21.8%; the “percent quench of YFP fluorescence, 10 uM tc6” value is −27.08%; the “percent quench of YFP fluorescence, 500 uM tc6” value was −21.56%. Also, in assay [3], the “percent quench of YFP fluorescence, 50 nM abt” value is listed as −11.09%; the “percent quench of YFP fluorescence, 100 nM abt” value is −10.37%; the “percent quench of YFP fluorescence, 300 nM abt” value is on record as −4%; the “percent quench of YFP fluorescence, 1 uM abt” value is 4.05%. Further, in assay [4], the “percent quench of YFP fluorescence, 30 nM fac” value is listed as −21.36%; the “percent quench of YFP fluorescence, 300 nM fac” value was 4.17%; the “percent quench of YFP fluorescence, 30 uM fac” value came out at 65.94%. In assay [6], the “percent quench of YFP fluorescence, 100 nM azd” value is −7.02%; the “percent quench of YFP fluorescence, 300 nM azd” value is given as −0.48%; the “percent quench of YFP fluorescence, 30 uM azd” value came to 70.16%. In addition, in assay [7], the “percent quench of YFP fluorescence, 10 uM ach” value is given as −12.24%; the “percent quench of YFP fluorescence, 100 uM ach” value is given as −26.23%; the “percent quench of YFP fluorescence, 1 mM ach” value is −1.16%; the “percent quench of YFP fluorescence, 3 mM ach” value came out at 2.97%.
